Data reported in patent US20110111454.

How the values were obtained:
[Tn]-MalE-hGH = [Tn]-MalE-hGH (UniProt P01241)
IFNα2b[Tn] = IFNα2b[Tn] (UniProt P01563)
Chain of IFNα2b[Tn] (P01563 whole entry, looked up): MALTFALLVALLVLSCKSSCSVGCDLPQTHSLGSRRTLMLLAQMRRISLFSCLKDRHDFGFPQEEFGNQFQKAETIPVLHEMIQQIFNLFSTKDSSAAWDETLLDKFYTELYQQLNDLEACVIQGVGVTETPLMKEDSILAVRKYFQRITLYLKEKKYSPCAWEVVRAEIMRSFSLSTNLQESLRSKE

Chain of [Tn]-MalE-hGH (P01241 27-217): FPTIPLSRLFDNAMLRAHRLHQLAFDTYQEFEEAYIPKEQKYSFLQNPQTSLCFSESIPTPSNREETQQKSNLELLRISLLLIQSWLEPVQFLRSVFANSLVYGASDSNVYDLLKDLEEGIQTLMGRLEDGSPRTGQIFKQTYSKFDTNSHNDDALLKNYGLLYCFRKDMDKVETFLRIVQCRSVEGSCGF

**Q.** With CgtB11168 (Δ30, C-terminal MalE) as the substance, how does the “PNA blot after the galactosylation reaction” value ([Tn]-MalE-hGH) read?
**A.** Its value is “Increased staining in Lane D after PNA blotting”.

**Q.** How did the “MALDI mass of the galactosylated protein” value (IFNα2b[Tn]) turn out when CgtBOH4384 (Δ30, C-terminal MalE) was run?
**A.** Its value is “The presence of the species at m/z 19665 is the proof that the IFNα2b[Tn] protein can be galactosylated by CJL-136”.

**Q.** And the “CE-MS mass shift of the peptide” value (IFNα2b[Tn]-FCHASE)?
**A.** The value was “the molecular weight of IFNα2b[T-Ag]-FCHASE was 162 Dalton higher than that of IFNα2b[Tn]-FCHASE”.

**Q.** What about the Specific Activity (mU/mg) on 1 mM IFNα2b[Tn]-FCHASE (IFNα2b[Tn]-FCHASE) of the same substance?
**A.** Its Specific Activity (mU/mg) on 1 mM IFNα2b[Tn]-FCHASE is 272 mU/mg.

**Q.** And the “percent of IFNα2b[Tn]-FCHASE converted into IFNα2b[T-Ag]-FCHASE after 30 minutes (capillary electrophoresis)” value (IFNα2b[Tn]-FCHASE)?
**A.** The value was 91.9% of the material had been converted into IFNα2b[T-Ag]-FCHASE.

**Q.** Which Specific Activity (mU/mg) on 1 mM IFNα2b[Tn]-FCHASE (IFNα2b[Tn]-FCHASE) does the source give for CgtBOH4384 (Δ30, N-terminal MalE) here?
**A.** Its Specific Activity (mU/mg) on 1 mM IFNα2b[Tn]-FCHASE is 14 mU/mg.
